Laboratory results taken from publication PMC11993666 (Nature Communications, 2025).

B1: ChiLob7/4 hIgG2 C232S κC214S (cross-over) (antibody, V domains shown)
VH: EVQLQQSGPDLVKPGASVKISCKTSGYTFTEYIMHWVKQSHGKSLEWIGGIIPNNGGTSYNQKFKDKATMTVDKSSSTGYMELRSLTSEDSAVYYCTRREVYGRNYYALDYWGQGTLVTVSS
VL: DIQMTQTTSSLSASLGDRVTITCSASQGINNYLNWYQQKPDGTVKLLIYYTSSLHSGVPSRFSGSGSGTDYSLTISNLEPEDIATYYCQQYSNLPYTFGGGTKLEIK
B2: ChiLob7/4 hIgG2 C232S + K228C κC214S (cross-over + K228C) (antibody, V domains shown)
VH: B1 VH
VL: B1 VL
B3: ChiLob7/4 hIgG2 C232S + T222C κE123C + κC214S (cross-over + T222C κE123C) (antibody, V domains shown)
VH: B1 VH
VL: B1 VL

Legend:
[1] = target: hCD40 (as used in SPR) (human) (UniProt P25942); experiment: SPR
Chain of hCD40 (as used in SPR) (human) (P25942 21-277): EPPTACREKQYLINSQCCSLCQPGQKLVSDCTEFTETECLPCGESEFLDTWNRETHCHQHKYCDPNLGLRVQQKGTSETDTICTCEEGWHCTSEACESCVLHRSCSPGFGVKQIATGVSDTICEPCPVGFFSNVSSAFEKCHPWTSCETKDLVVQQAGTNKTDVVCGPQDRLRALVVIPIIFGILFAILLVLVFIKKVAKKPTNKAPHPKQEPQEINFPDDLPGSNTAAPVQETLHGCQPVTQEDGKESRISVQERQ

[2] = target: hCD40 expressed on Jurkat cells (human, UniProt P25942); experiment: cell-based or functional assay
Chain of hCD40 expressed on Jurkat cells (P25942 21-277): as above

| Kd [1] [nM] | koff [1] [s⁻¹] | EC50 of NF-κB activation (percentage of GFP+ cells, flow cytometry, 24 h) in NF-κB/Jurkat/GFP reporter cells expressing hCD40 [2] [ng/mL] | Molecule |
| --- | --- | --- | --- |
| 1.97 | 0.000164 |  | ChiLob7/4 hIgG2 wild type (from UniProt P01859) |
|  |  | 4.59 | B1 |
|  |  | 1.55 | B2 |
|  |  | 1.55 | B3 |
